Data published in the supplement of paper PMC7877785.
± gives the uncertainty stated by the source.

Assay: self-splicing fitness, log relative to wild type (ln ratio); higher = more splicing; Tetrahymena group I intron in knt gene, E. coli kanamycin selection, DiMSum; sequences stand for … in CUCUCU…GGAGGGAAAAGUUAUCAGGCAUGCACCUGGUAGCUAGUCUUUAAACCAAUAGAUUGCAUCGGUUUAAAAGGCAAGACCGUCAAAUUGCGGGAAAGGGGUCAACAGCCGUUCAGUACCAAGUCUCAGGGGAAACUUUGAGAUGGCCUUGCAAAGGGUAUGGUAAUAAGCUGACGGACAUGGUCCUAACCACGCAGCCAAGUCCUAAGUCAACAGAUCUUCUGUUGAUAUGGAUGCAGUUCACAGACUAAAUGUCGGUCGGGGAAGAUGUAUUCUUCUCAUAAGAUAUAGUCGGACCUCUCCUUAAUGGGAGCUAGCGGAUGAAGUGAUGCAACACUGGAGCCGCUGGGAACUAAUUUGUAUGCGAAAGUAUAUUGAUUAGUUUUGGAGUACUCGUGGUCG
Outline: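 Library with all eight P1ex-region intron nucleotides randomised, intron inside the knt kanamycin-resistance gene on pET-22b(+), in E. coli BL21(DE3). Cells grew overnight at 37°C or 30°C on LB agar with or without 25 μg/mL kanamycin (plus 100 μg/mL carbenicillin, 50 μM IPTG, 0.2% rhamnose), in six replicate transformations. Pooled colonies were amplicon-sequenced on Illumina HiSeq 2500. DiMSum fitness is the error-weighted combination of wild-type-normalised replicate fold changes, kanamycin versus none.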

UCAGAGCAAUAUUACGGAUG
self-splicing fitness (ln) (30 °C): -3.87 ± 0.38
self-splicing fitness (ln) (37 °C): -2.06 ± 0.35

UCAGAGCAAUAUUACGGCGA
self-splicing fitness (ln) (30 °C): -0.324 ± 0.072
self-splicing fitness (ln) (37 °C): -0.417 ± 0.076

UCAGAGCAAUAUUACGGGCA
self-splicing fitness (ln) (30 °C): -3.11 ± 0.29
self-splicing fitness (ln) (37 °C): -1.77 ± 0.17

UCAGAGCAAUAUUACGGUGU
self-splicing fitness (ln) (30 °C): -4.01 ± 0.3
self-splicing fitness (ln) (37 °C): -2.25 ± 0.18

UCAGAGCAAUAUUACGUAUA
self-splicing fitness (ln) (30 °C): -3.46 ± 0.27
self-splicing fitness (ln) (37 °C): -2.44 ± 0.23

UCAGAGCAAUAUUACGUCUA
self-splicing fitness (ln) (30 °C): -3.04 ± 0.29
self-splicing fitness (ln) (37 °C): -2.35 ± 0.3

UCAGAGCAAUAUUACGUGUA
self-splicing fitness (ln) (30 °C): -2.57 ± 0.23
self-splicing fitness (ln) (37 °C): -2.18 ± 0.19

UCAGAGCAAUAUUACGUUAA
self-splicing fitness (ln) (30 °C): -3.58 ± 0.35
self-splicing fitness (ln) (37 °C): -2.61 ± 0.34

UCAGAGCAAUAUUACGUUGU
self-splicing fitness (ln) (30 °C): -3.38 ± 0.2
self-splicing fitness (ln) (37 °C): -3.51 ± 0.35

UCAUAGCAAUAUUACGAAAG
self-splicing fitness (ln) (37 °C): -1.84 ± 0.47

UCAUAGCAAUAUUACGAAAU
self-splicing fitness (ln) (30 °C): -2.86 ± 0.23
self-splicing fitness (ln) (37 °C): -2.58 ± 0.28

UCAUAGCAAUAUUACGACAG
self-splicing fitness (ln) (30 °C): -1.49 ± 0.13
self-splicing fitness (ln) (37 °C): -1.26 ± 0.15

UCAUAGCAAUAUUACGAGUU
self-splicing fitness (ln) (30 °C): -2.66 ± 0.34
self-splicing fitness (ln) (37 °C): -1.56 ± 0.36

UCAUAGCAAUAUUACGCCAU
self-splicing fitness (ln) (30 °C): -3.49 ± 0.36
self-splicing fitness (ln) (37 °C): -1.49 ± 0.33

UCAUAGCAAUAUUACGCGAG
self-splicing fitness (ln) (30 °C): -1.52 ± 0.15
self-splicing fitness (ln) (37 °C): -0.957 ± 0.15

UCAUAGCAAUAUUACGCUUA
self-splicing fitness (ln) (37 °C): -1.21 ± 0.26

UCAUAGCAAUAUUACGGAUC
self-splicing fitness (ln) (30 °C): -3.73 ± 0.28
self-splicing fitness (ln) (37 °C): -2.38 ± 0.22

UCAUAGCAAUAUUACGGCGA
self-splicing fitness (ln) (30 °C): -0.178 ± 0.07
self-splicing fitness (ln) (37 °C): -0.102 ± 0.083

UCAUAGCAAUAUUACGGCGC
self-splicing fitness (ln) (30 °C): -2.63 ± 0.31

UCAUAGCAAUAUUACGGGGA
self-splicing fitness (ln) (30 °C): -1.54 ± 0.1
self-splicing fitness (ln) (37 °C): -0.546 ± 0.12

UCAUAGCAAUAUUACGGUCU
self-splicing fitness (ln) (30 °C): -3.49 ± 0.16
self-splicing fitness (ln) (37 °C): -2.31 ± 0.14

UCAUAGCAAUAUUACGGUUA
self-splicing fitness (ln) (30 °C): -1.37 ± 0.14
self-splicing fitness (ln) (37 °C): -0.36 ± 0.11

UCAUAGCAAUAUUACGUAAU
self-splicing fitness (ln) (30 °C): -3.87 ± 0.48
self-splicing fitness (ln) (37 °C): -2.61 ± 0.28

UCAUAGCAAUAUUACGUGUU
self-splicing fitness (ln) (30 °C): -3.81 ± 0.14
self-splicing fitness (ln) (37 °C): -1.57 ± 0.1

UCAUAGCAAUAUUACGUUCU
self-splicing fitness (ln) (30 °C): -2.79 ± 0.27
self-splicing fitness (ln) (37 °C): -2.32 ± 0.21

UCCAAGCAAUAUUACGAAAC
self-splicing fitness (ln) (30 °C): -3.13 ± 0.22
self-splicing fitness (ln) (37 °C): -2.95 ± 0.35

UCCAAGCAAUAUUACGACAU
self-splicing fitness (ln) (30 °C): -3.54 ± 0.021
self-splicing fitness (ln) (37 °C): -2.31 ± 0.036

UCCAAGCAAUAUUACGAUUA
self-splicing fitness (ln) (30 °C): -0.942 ± 0.11
self-splicing fitness (ln) (37 °C): -0.817 ± 0.11

UCCAAGCAAUAUUACGCACC
self-splicing fitness (ln) (30 °C): -4.36 ± 0.32
self-splicing fitness (ln) (37 °C): -1.94 ± 0.21

UCCAAGCAAUAUUACGCAGA
self-splicing fitness (ln) (30 °C): -1.58 ± 0.12
self-splicing fitness (ln) (37 °C): -0.571 ± 0.088

UCCAAGCAAUAUUACGCAUU
self-splicing fitness (ln) (30 °C): -4.05 ± 0.21
self-splicing fitness (ln) (37 °C): -2.35 ± 0.23

UCCAAGCAAUAUUACGCCAC
self-splicing fitness (ln) (37 °C): -1.13 ± 0.33

UCCAAGCAAUAUUACGCCAG
self-splicing fitness (ln) (37 °C): -1.9 ± 0.28

UCCAAGCAAUAUUACGCGAU
self-splicing fitness (ln) (30 °C): -4.34 ± 0.21
self-splicing fitness (ln) (37 °C): -2.24 ± 0.17

UCCAAGCAAUAUUACGCGCC
self-splicing fitness (ln) (30 °C): -3.47 ± 0.27
self-splicing fitness (ln) (37 °C): -2.31 ± 0.32

UCCAAGCAAUAUUACGCUCG
self-splicing fitness (ln) (30 °C): -4.74 ± 0.45
self-splicing fitness (ln) (37 °C): -2.28 ± 0.49

UCCAAGCAAUAUUACGCUCU
self-splicing fitness (ln) (30 °C): -3.44 ± 0.28
self-splicing fitness (ln) (37 °C): -1.75 ± 0.18

UCCAAGCAAUAUUACGGAAU
self-splicing fitness (ln) (30 °C): -3.72 ± 0.3
self-splicing fitness (ln) (37 °C): -2.97 ± 0.33

UCCAAGCAAUAUUACGGCCG
self-splicing fitness (ln) (30 °C): -2.7 ± 0.2
self-splicing fitness (ln) (37 °C): -1.41 ± 0.16

UCCAAGCAAUAUUACGGCGA
self-splicing fitness (ln) (30 °C): 0.214 ± 0.078
self-splicing fitness (ln) (37 °C): 0.225 ± 0.086

UCCAAGCAAUAUUACGUAAG
self-splicing fitness (ln) (30 °C): -4.14 ± 0.3
self-splicing fitness (ln) (37 °C): -2.37 ± 0.21

UCCAAGCAAUAUUACGUACU
self-splicing fitness (ln) (30 °C): -3.94 ± 0.39
self-splicing fitness (ln) (37 °C): -2.54 ± 0.24

UCCAAGCAAUAUUACGUAGU
self-splicing fitness (ln) (30 °C): -1.27 ± 0.068
self-splicing fitness (ln) (37 °C): -0.483 ± 0.091

UCCAAGCAAUAUUACGUAUA
self-splicing fitness (ln) (30 °C): -2.19 ± 0.094
self-splicing fitness (ln) (37 °C): -1.29 ± 0.096

UCCAAGCAAUAUUACGUCUA
self-splicing fitness (ln) (30 °C): -2.26 ± 0.13
self-splicing fitness (ln) (37 °C): -0.9 ± 0.11

UCCAAGCAAUAUUACGUGCC
self-splicing fitness (ln) (30 °C): -3.87 ± 0.36
self-splicing fitness (ln) (37 °C): -2.28 ± 0.26

UCCAAGCAAUAUUACGUGCU
self-splicing fitness (ln) (30 °C): -3.49 ± 0.22
self-splicing fitness (ln) (37 °C): -2.76 ± 0.22

UCCAAGCAAUAUUACGUGUG
self-splicing fitness (ln) (30 °C): -2.08 ± 0.066
self-splicing fitness (ln) (37 °C): -1.75 ± 0.081

UCCCAGCAAUAUUACGAAUC
self-splicing fitness (ln) (30 °C): -2.49 ± 0.26
self-splicing fitness (ln) (37 °C): -1.93 ± 0.3

UCCCAGCAAUAUUACGAGUG
self-splicing fitness (ln) (30 °C): -3.66 ± 0.18
self-splicing fitness (ln) (37 °C): -1.79 ± 0.13

UCCCAGCAAUAUUACGAUAC
self-splicing fitness (ln) (30 °C): -2.17 ± 0.19
self-splicing fitness (ln) (37 °C): -2.45 ± 0.44

UCCCAGCAAUAUUACGAUCG
self-splicing fitness (ln) (30 °C): -3.52 ± 0.3
self-splicing fitness (ln) (37 °C): -2.79 ± 0.16

UCCCAGCAAUAUUACGCAGA
self-splicing fitness (ln) (30 °C): -0.882 ± 0.06
self-splicing fitness (ln) (37 °C): -0.0561 ± 0.073

UCCCAGCAAUAUUACGCCCU
self-splicing fitness (ln) (30 °C): -2.07 ± 0.15
self-splicing fitness (ln) (37 °C): -1.03 ± 0.21

UCCCAGCAAUAUUACGCCGU
self-splicing fitness (ln) (30 °C): -3.11 ± 0.22
self-splicing fitness (ln) (37 °C): -2.27 ± 0.21

UCCCAGCAAUAUUACGCCUG
self-splicing fitness (ln) (30 °C): -3.13 ± 0.26
self-splicing fitness (ln) (37 °C): -1.8 ± 0.23

UCCCAGCAAUAUUACGCGGG
self-splicing fitness (ln) (30 °C): -2.66 ± 0.12
self-splicing fitness (ln) (37 °C): -3.36 ± 0.18

UCCCAGCAAUAUUACGCUAG
self-splicing fitness (ln) (30 °C): -3.45 ± 0.18
self-splicing fitness (ln) (37 °C): -2.9 ± 0.34

UCCCAGCAAUAUUACGGAAG
self-splicing fitness (ln) (30 °C): -3.24 ± 0.12
self-splicing fitness (ln) (37 °C): -2.88 ± 0.23

UCCCAGCAAUAUUACGGCGG
self-splicing fitness (ln) (30 °C): -2.91 ± 0.16
self-splicing fitness (ln) (37 °C): -2.21 ± 0.18

UCCCAGCAAUAUUACGGUAU
self-splicing fitness (ln) (30 °C): -1.24 ± 0.059
self-splicing fitness (ln) (37 °C): -0.809 ± 0.08
